Here are results for two substances from patent US9885687B2, “Apparatus and method for evaluating characteristics of target molecules” (Dynamic Biosensors GmbH, priority 2010, dated 2018).

The nature of the data set: voltage response curve (normalized fluorescence versus static substrate potential) to determine target charge. The format is physicochemical. As to conditions: protein bound to probe DNA. The source says:
Note that so far no time dependence has been introduced, since the electric field has been kept stationary. However, with the above equation, it is possible to calculate the fluorescence signal for different values of the applied static potential Φ. The corresponding curve is referred to as “voltage response curve” in the following.
Further note that the model so far only accounted for the free probe molecule, i.e. the double-stranded DNA, but not for any target molecule. As long as the stationary state is concerned, i.e. without a time-dependent electrical field, the target molecule will mainly affect the results due to a possible charge thereof. In fact, based on the above understanding of the stochastic behaviour of the probe molecule, the inventors conjectured that it should be possible to qualitatively and quantitatively determine the charge of the target molecule from the voltage response curve.
The corresponding voltage response curve is shown by filled circles, while the voltage response curve of the free DNA is again shown by open diamonds. It can be seen that the voltage response curve in presence of the avidin also differs noticeably from that of the DNA alone.

On to “avidin: positively charged protein bound to the probe DNA”, for which the “charge of the target molecule” value is “positively charged”.

“streptavidin: negatively charged protein bound to the probe DNA”: the “charge of the target molecule” value was “negatively charged”.
